T1: human calcitonin receptor (human, UniProt P30988 25-474)
T1 sequence (looked up): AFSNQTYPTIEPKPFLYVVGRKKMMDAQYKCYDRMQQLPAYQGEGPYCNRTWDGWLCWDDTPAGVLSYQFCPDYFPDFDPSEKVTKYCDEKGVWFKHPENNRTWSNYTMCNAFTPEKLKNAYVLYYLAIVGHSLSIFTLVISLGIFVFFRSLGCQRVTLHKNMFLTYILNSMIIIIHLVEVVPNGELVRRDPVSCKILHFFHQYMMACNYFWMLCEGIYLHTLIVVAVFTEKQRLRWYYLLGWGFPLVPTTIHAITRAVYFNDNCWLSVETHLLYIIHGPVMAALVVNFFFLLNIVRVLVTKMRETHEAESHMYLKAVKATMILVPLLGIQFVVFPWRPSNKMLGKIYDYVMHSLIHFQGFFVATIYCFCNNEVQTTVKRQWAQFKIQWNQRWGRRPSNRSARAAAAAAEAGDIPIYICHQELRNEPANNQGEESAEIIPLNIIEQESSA

T2: human amylin 3(a) receptor (human calcitonin receptor co-expressed with RAMP-3) (human, UniProt P30988 25-474; O60896 24-148, limits assumed)
T2 sequence (looked up) 1: T1 sequence (looked up)
T2 sequence (looked up) 2: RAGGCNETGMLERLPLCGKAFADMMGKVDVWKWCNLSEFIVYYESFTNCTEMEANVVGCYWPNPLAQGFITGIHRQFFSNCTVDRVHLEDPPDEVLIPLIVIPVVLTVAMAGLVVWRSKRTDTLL

B1: [N-terminal(C20 diacid-gGlu), 2L, 4G, 8L, 9V, 15Q, 21Q, 23Y, 27G, 30S, 31G, 32T, 33Y]mimylin (peptide)
peptide: {C20 diacid-γGlu}-ELSGLSTLVLGRLSQELHELQTYPRTGTGSGTY-NH2
SMILES: CC(C)C[C@H](NC(=O)CNC(=O)[C@H](CO)NC(=O)[C@H](CC(C)C)NC(=O)[C@H](CCC(=O)O)NC(=O)CC[C@H](NC(=O)CCCCCCCCCCCCCCCCCCC(=O)O)C(=O)O)C(=O)N[C@@H](CO)C(=O)N[C@H](C(=O)N[C@@H](CC(C)C)C(=O)N[C@H](C(=O)N[C@@H](CC(C)C)C(=O)NCC(=O)N[C@@H](CCCNC(=N)N)C(=O)N[C@@H](CC(C)C)C(=O)N[C@@H](CO)C(=O)N[C@@H](CCC(N)=O)C(=O)N[C@@H](CCC(=O)O)C(=O)N[C@@H](CC(C)C)C(=O)N[C@@H](Cc1c[nH]cn1)C(=O)N[C@@H](CCC(=O)O)C(=O)N[C@@H](CC(C)C)C(=O)N[C@@H](CCC(N)=O)C(=O)N[C@H](C(=O)N[C@@H](Cc1ccc(O)cc1)C(=O)N1CCC[C@H]1C(=O)N[C@@H](CCCNC(=N)N)C(=O)N[C@H](C(=O)NCC(=O)N[C@H](C(=O)NCC(=O)N[C@@H](CO)C(=O)NCC(=O)N[C@H](C(=O)N[C@@H](Cc1ccc(O)cc1)C(N)=O)[C@@H](C)O)[C@@H](C)O)[C@@H](C)O)[C@@H](C)O)C(C)C)[C@@H](C)O
B2: [N-terminal(C20 diacid-gGlu), des1, 2L, 4Q, 8L, 9V, 15Q, 16R, 19R, 21Q, 23Y, 27Q, 30S, 31Q, 32T, 33Y]mimylin (peptide)
peptide: {C20 diacid-γGlu}-LSQLSTLVLGRLSQRLHRLQTYPRTQTGSQTY-NH2
SMILES: CC(C)C[C@H](NC(=O)CC[C@H](NC(=O)CCCCCCCCCCCCCCCCCCC(=O)O)C(=O)O)C(=O)N[C@@H](CO)C(=O)N[C@@H](CCC(N)=O)C(=O)N[C@@H](CC(C)C)C(=O)N[C@@H](CO)C(=O)N[C@H](C(=O)N[C@@H](CC(C)C)C(=O)N[C@H](C(=O)N[C@@H](CC(C)C)C(=O)NCC(=O)N[C@@H](CCCNC(=N)N)C(=O)N[C@@H](CC(C)C)C(=O)N[C@@H](CO)C(=O)N[C@@H](CCC(N)=O)C(=O)N[C@@H](CCCNC(=N)N)C(=O)N[C@@H](CC(C)C)C(=O)N[C@@H](Cc1c[nH]cn1)C(=O)N[C@@H](CCCNC(=N)N)C(=O)N[C@@H](CC(C)C)C(=O)N[C@@H](CCC(N)=O)C(=O)N[C@H](C(=O)N[C@@H](Cc1ccc(O)cc1)C(=O)N1CCC[C@H]1C(=O)N[C@@H](CCCNC(=N)N)C(=O)N[C@H](C(=O)N[C@@H](CCC(N)=O)C(=O)N[C@H](C(=O)NCC(=O)N[C@@H](CO)C(=O)N[C@@H](CCC(N)=O)C(=O)N[C@H](C(=O)N[C@@H](Cc1ccc(O)cc1)C(N)=O)[C@@H](C)O)[C@@H](C)O)[C@@H](C)O)[C@@H](C)O)C(C)C)[C@@H](C)O
B3: [N-terminal(C20 diacid-gGlu), des1, 4G, 9V, 12K, 15Q, 21Q, 23Y, 25P, 30S, 31G, 32T, 33Y]mimylin (peptide)
peptide: {C20 diacid-γGlu}-ASGLSTAVLGKLSQELHELQTYPPTETGSGTY-NH2
SMILES: CC(C)C[C@H](NC(=O)CNC(=O)[C@H](CO)NC(=O)[C@H](C)NC(=O)CC[C@H](NC(=O)CCCCCCCCCCCCCCCCCCC(=O)O)C(=O)O)C(=O)N[C@@H](CO)C(=O)N[C@H](C(=O)N[C@@H](C)C(=O)N[C@H](C(=O)N[C@@H](CC(C)C)C(=O)NCC(=O)N[C@@H](CCCCN)C(=O)N[C@@H](CC(C)C)C(=O)N[C@@H](CO)C(=O)N[C@@H](CCC(N)=O)C(=O)N[C@@H](CCC(=O)O)C(=O)N[C@@H](CC(C)C)C(=O)N[C@@H](Cc1c[nH]cn1)C(=O)N[C@@H](CCC(=O)O)C(=O)N[C@@H](CC(C)C)C(=O)N[C@@H](CCC(N)=O)C(=O)N[C@H](C(=O)N[C@@H](Cc1ccc(O)cc1)C(=O)N1CCC[C@H]1C(=O)N1CCC[C@H]1C(=O)N[C@H](C(=O)N[C@@H](CCC(=O)O)C(=O)N[C@H](C(=O)NCC(=O)N[C@@H](CO)C(=O)NCC(=O)N[C@H](C(=O)N[C@@H](Cc1ccc(O)cc1)C(N)=O)[C@@H](C)O)[C@@H](C)O)[C@@H](C)O)[C@@H](C)O)C(C)C)[C@@H](C)O
B4: [N-terminal(C20 diacid-gGlu), des1, 4Q, 9V, 15Q, 16R, 19R, 21Q, 23Y, 27Q, 30S, 31Q, 32T, 33Y]mimylin (peptide)
peptide: {C20 diacid-γGlu}-ASQLSTAVLGRLSQRLHRLQTYPRTQTGSQTY-NH2
SMILES: CC(C)C[C@H](NC(=O)[C@H](CCCNC(=N)N)NC(=O)CNC(=O)[C@H](CC(C)C)NC(=O)[C@@H](NC(=O)[C@H](C)NC(=O)[C@@H](NC(=O)[C@H](CO)NC(=O)[C@H](CC(C)C)NC(=O)[C@H](CCC(N)=O)NC(=O)[C@H](CO)NC(=O)[C@H](C)NC(=O)CC[C@H](NC(=O)CCCCCCCCCCCCCCCCCCC(=O)O)C(=O)O)[C@@H](C)O)C(C)C)C(=O)N[C@@H](CO)C(=O)N[C@@H](CCC(N)=O)C(=O)N[C@@H](CCCNC(=N)N)C(=O)N[C@@H](CC(C)C)C(=O)N[C@@H](Cc1c[nH]cn1)C(=O)N[C@@H](CCCNC(=N)N)C(=O)N[C@@H](CC(C)C)C(=O)N[C@@H](CCC(N)=O)C(=O)N[C@H](C(=O)N[C@@H](Cc1ccc(O)cc1)C(=O)N1CCC[C@H]1C(=O)N[C@@H](CCCNC(=N)N)C(=O)N[C@H](C(=O)N[C@@H](CCC(N)=O)C(=O)N[C@H](C(=O)NCC(=O)N[C@@H](CO)C(=O)N[C@@H](CCC(N)=O)C(=O)N[C@H](C(=O)N[C@@H](Cc1ccc(O)cc1)C(N)=O)[C@@H](C)O)[C@@H](C)O)[C@@H](C)O)[C@@H](C)O
B5: [N-terminal(C20 diacid-gGlu), des1, 4G, 9V, 15Q, 21Q, 23aQ, 23bT, 23cY, 30S, 31Q, 32T, 33Y]mimylin (peptide)
peptide: {C20 diacid-γGlu}-ASGLSTAVLGRLSQELHELQTLQTYPRTETGSQTY-NH2
SMILES: CC(C)C[C@H](NC(=O)CNC(=O)[C@H](CO)NC(=O)[C@H](C)NC(=O)CC[C@H](NC(=O)CCCCCCCCCCCCCCCCCCC(=O)O)C(=O)O)C(=O)N[C@@H](CO)C(=O)N[C@H](C(=O)N[C@@H](C)C(=O)N[C@H](C(=O)N[C@@H](CC(C)C)C(=O)NCC(=O)N[C@@H](CCCNC(=N)N)C(=O)N[C@@H](CC(C)C)C(=O)N[C@@H](CO)C(=O)N[C@@H](CCC(N)=O)C(=O)N[C@@H](CCC(=O)O)C(=O)N[C@@H](CC(C)C)C(=O)N[C@@H](Cc1c[nH]cn1)C(=O)N[C@@H](CCC(=O)O)C(=O)N[C@@H](CC(C)C)C(=O)N[C@@H](CCC(N)=O)C(=O)N[C@H](C(=O)N[C@@H](CC(C)C)C(=O)N[C@@H](CCC(N)=O)C(=O)N[C@H](C(=O)N[C@@H](Cc1ccc(O)cc1)C(=O)N1CCC[C@H]1C(=O)N[C@@H](CCCNC(=N)N)C(=O)N[C@H](C(=O)N[C@@H](CCC(=O)O)C(=O)N[C@H](C(=O)NCC(=O)N[C@@H](CO)C(=O)N[C@@H](CCC(N)=O)C(=O)N[C@H](C(=O)N[C@@H](Cc1ccc(O)cc1)C(N)=O)[C@@H](C)O)[C@@H](C)O)[C@@H](C)O)[C@@H](C)O)[C@@H](C)O)C(C)C)[C@@H](C)O
B6: [N-terminal(C20 diacid-gGlu), des1, 4G, 9T, 15Q, 21Q, 23Y, 25P, 30S, 31G, 32T, 33Y]mimylin (peptide)
peptide: {C20 diacid-γGlu}-ASGLSTATLGRLSQELHELQTYPPTETGSGTY-NH2
SMILES: CC(C)C[C@H](NC(=O)CNC(=O)[C@H](CO)NC(=O)[C@H](C)NC(=O)CC[C@H](NC(=O)CCCCCCCCCCCCCCCCCCC(=O)O)C(=O)O)C(=O)N[C@@H](CO)C(=O)N[C@H](C(=O)N[C@@H](C)C(=O)N[C@H](C(=O)N[C@@H](CC(C)C)C(=O)NCC(=O)N[C@@H](CCCNC(=N)N)C(=O)N[C@@H](CC(C)C)C(=O)N[C@@H](CO)C(=O)N[C@@H](CCC(N)=O)C(=O)N[C@@H](CCC(=O)O)C(=O)N[C@@H](CC(C)C)C(=O)N[C@@H](Cc1c[nH]cn1)C(=O)N[C@@H](CCC(=O)O)C(=O)N[C@@H](CC(C)C)C(=O)N[C@@H](CCC(N)=O)C(=O)N[C@H](C(=O)N[C@@H](Cc1ccc(O)cc1)C(=O)N1CCC[C@H]1C(=O)N1CCC[C@H]1C(=O)N[C@H](C(=O)N[C@@H](CCC(=O)O)C(=O)N[C@H](C(=O)NCC(=O)N[C@@H](CO)C(=O)NCC(=O)N[C@H](C(=O)N[C@@H](Cc1ccc(O)cc1)C(N)=O)[C@@H](C)O)[C@@H](C)O)[C@@H](C)O)[C@@H](C)O)[C@@H](C)O)[C@@H](C)O

Numbered stars: 1 amine (or outer) side, 2 acyl side, 3 side chain; on linkers, the order of the positions; unused ones are H or OH. Ends that are not written are not given here. * marks the point of attachment. C20 diacid = O=C(O)CCCCCCCCCCCCCCCCCCC(=O)*; C18 diacid = O=C(O)CCCCCCCCCCCCCCCCC(=O)*; γGlu = O=C(O)[C@H](CCC(=O)[*:2])N[*:1]

From patent US20160272683A1 (Novo Nordisk, published 2016) come the findings set out here.

The first experiment addresses T1, human calcitonin receptor. In words: cell-based or functional assay.
For the molecule B1, the “hCTR funct. EC50 (pM)” value is 25 pM.

In the case of B2, the “hCTR funct. EC50 (pM)” value turned out to be 12 pM.

For the molecule {C18 diacid}-EASELSTAALGRLSAELHELATLPRTETGPESP-OH [[N-terminal(C18 diacid), C-terminal(-)]mimylin], the “hCTR funct. EC50 (pM)” value came out at 45 pM.

With B3, the “hCTR funct. EC50 (pM)” value was 15 pM.

Regarding ASELSTAALGHLSAELHELATLPRTETGSGSP-NH2 [[des1, 12H, 30S, 31G]mimylin], the “hCTR funct. EC50 (pM)” value was 3 pM.

In the case of B4, the “hCTR funct. EC50 (pM)” value was determined as 15 pM.

In the case of B5, the “hCTR funct. EC50 (pM)” value amounted to 45 pM.

As to ASELTTAVLGRLSAELHELATLPRTETGTGTP-NH2 [[des1, 6T, 9V, 30T, 31G, 32T]mimylin], the “hCTR funct. EC50 (pM)” value was 9 pM.

With B6, the “hCTR funct. EC50 (pM)” value worked out at 19 pM.

The target of the next experiment is T2, human amylin 3(a) receptor (human …). In words: cell-based or functional assay.
For B1, the “hAmylin-R funct. EC50 (pM)” value turned out to be 25 pM.

Regarding B2, the “hAmylin-R funct. EC50 (pM)” value was 10 pM.

Take {C18 diacid}-EASELSTAALGRLSAELHELATLPRTETGPESP-OH [[N-terminal(C18 diacid), C-terminal(-)]mimylin]: the “hAmylin-R funct. EC50 (pM)” value came out at 481 pM.

As to B3, the “hAmylin-R funct. EC50 (pM)” value was determined as 18 pM.

As to ASELSTAALGHLSAELHELATLPRTETGSGSP-NH2 [[des1, 12H, 30S, 31G]mimylin], the “hAmylin-R funct. EC50 (pM)” value was found to be 14 pM.

For the molecule B4, the “hAmylin-R funct. EC50 (pM)” value was 16 pM.

As to B5, the “hAmylin-R funct. EC50 (pM)” value amounted to 54 pM.

Turning to ASELTTAVLGRLSAELHELATLPRTETGTGTP-NH2 [[des1, 6T, 9V, 30T, 31G, 32T]mimylin], the “hAmylin-R funct. EC50 (pM)” value was determined as 46 pM.

Consider B6, for which the “hAmylin-R funct. EC50 (pM)” value was found to be 23 pM.
